Results from patent publication US20170157165, “APTAMER FOR FGF2 AND USE THEREOF” (RIBOMIC INC., published 2017).

Legend:
FGF2 [1] = target: T1, FGF2 (Homo sapiens, UniProt P09038 P09038:135-288); assay: inhibition; SPR inhibition of FGF2-FGFR1alpha(IIIc); each 0.1 uM; details: tags: Peprotech
Protocol: BIAcore2000 manufactured by BIAcore was used for the measurement. As directed in BIAcore Company's protocol, Protein A (21181, manufactured by PIERCE) was immobilized on a CM5 sensor chip. About 1,000 RU of human FGFR1α (IIIc), R2α (IIIc), R3 (IIIc), R4 (manufactured by R&D Systems) fused with the Fc portion of IgG (manufactured by R&D systems) was each immobilized thereon. As analyte, a mixture of FGF2 (0.1 μM), heparin (0.1 μM) (manufactured by Pfizer) and aptamer (0.15 μM) was flown. Before an inhibitory test, a mixture of FGF2 and heparin was confirmed to bind to 4 kinds of receptors. […] A sensorgram showing that the aptamer shown by aptamer ID 1 inhibits binding of FGF2 and FGFR1α(IIIc), 2α(IIIc), 3(IIIc), 4 is shown in FIG. 2.
In addition, the inhibitory rate against each of the 4 kinds of receptors was determined. The inhibitory rate was determined with the maximum binding amount of the FGF2 and heparin mixture as 0, and the binding amount with an injection buffer alone as 100. The binding amount here means the RU value of the peak top of sensorgram. The inhibitory rate was calculated. […] The inhibitory rate of other aptamers was not more than 50%.
To enhance FGF2-binding activity, stability, drug deliverability and the like, the nucleic acids shown by aptamer IDs 3(1)-3(40), aptamer IDs 4 and 4(1)-4(4), aptamer ID 5 and aptamer ID 6 were chemically synthesized based on the aptamer shown in SEQ ID NO: 3. Here, the aptamer shown by aptamer ID 4 is the aptamer shown by aptamer ID 3(19) wherein one G(M) at the 5′-terminal and one C(M) at the 3′-terminal have been deleted. The aptamer shown by aptamer ID 5 is the aptamer shown by aptamer ID 3(19) wherein one G(M) has been added at the 5′-terminal and one C(M) has been added at the 3′-terminal. The aptamer shown by aptamer ID 6 is the aptamer shown by aptamer ID 3(19) wherein A(M) alone has been added at the 5′-terminal. These nucleic acids were produced by chemical synthesis.

FGF2 [2] = target: T1, FGF2; assay: cell_activity; HUVEC proliferation, FGF2 0.58 nM; details: tags: Peprotech
Protocol: Human umbilical vein endothelial cells (HUVEC) were seeded in a 96 well flat bottom plate at 5×10³ cells per well, and cultured overnight using a medium EGM-2 Bullet Kit for endothelial cells (CC-3162 manufactured by Lonza) containing 2% fetal bovine serum and growth factors. Thereafter, the medium was discarded, the cells were washed twice with PBS buffer, and a mixture of the aptamer shown by aptamer ID 3(21) (5, 2.5, 1, 0.5 nM) and FGF2 (final concentration 0.5 nM), dissolved in a medium exclusively for endothelial cells containing 2% fetal bovine serum, was added. After 72 hr, viable cell number was examined using Cell Counting Kit-8. For the measurement of absorbance, a microplate reader (450 nm) was used. One sample was measured at n=3. As a positive control, anti-FGF2 antibody Anti-FGF, basic (Ab-3) Mouse mAb (3H3) (manufactured by Calbiochem) were used. With the OD value per well obtained by the addition of FGF2 alone and culture of the cells for 3 days as inhibitory activity 0%, and that of the cell obtained by FGF2 free culture for 3 days as inhibitory activity 100%, the inhibitory activity of the aptamer was calculated from the OD value per well obtained by culturing with the addition of a mixture of FGF2 and the aptamer. As a result, it was shown that the aptamer shown by aptamer ID 3(21) has a high inhibitory activity against FGF2.
By a method similar to the above except that the 96 well flat bottom plate was changed to a collagen-coated one, the activity of various aptamers was evaluated. The concentration of FGF2 added was 0.58 nM. As a negative control RNA, Macugen (registered trade mark) sequence without addition of PEG, and with C6 modification of the 5′-terminal and idT modification of the 3′-terminal was used.

T1 sequence (P09038 135-288, one chain of several): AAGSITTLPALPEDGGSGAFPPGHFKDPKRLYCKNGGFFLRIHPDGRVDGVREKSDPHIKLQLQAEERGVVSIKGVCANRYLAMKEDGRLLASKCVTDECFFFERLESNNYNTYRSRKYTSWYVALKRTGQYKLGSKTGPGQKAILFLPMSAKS

B1: aptamer ID 3(12) (ssRNA)
RNA: GGGAUACUAGGGCAUUAAUGUUACCAGUGUAGUCCC
modifications: 2'-OMe at G1,G2,G3,A4,A9,G10,G11,A14,A17,A18,G20,A23,A26,U33,C34,C35,C36; other C and U 2'-F; other purines 2'-OH; 3' idT
- activity (FGF2 [1]): 89%
- IC50 (FGF2 [2]): 21 nM

B2: aptamer ID 3(29) (ssRNA)
RNA: GGGAUACUAGGGCAUUAAUGUUACCAGUGUAGUCCC
modifications: 2'-F at U8,U16,U21,U28,U30; 2'-OH at G12,G27,G29; all others 2'-OMe; PS between G12 and C13
- activity (FGF2 [1]): 91%
- IC50 (FGF2 [2]): 3.1 nM

B3: aptamer ID 3(28) (ssRNA)
RNA: GGGAUACUAGGGCAUUAAUGUUACCAGUGUAGUCCC
modifications: 2'-F at U8,U16,U21,U28,U30; 2'-OH at G12,G27,G29; all others 2'-OMe; PS between G11 and G12
- activity (FGF2 [1]): 91%
- IC50 (FGF2 [2]): 4 nM

Binder: GGGAUACUAGGGCAUUAAUGUUACCAGUGUAGUCCC (ssRNA, 2'-F at U8,U16,U21,U28,U30; G27 DNA (2'-H); 2'-OH at G12,G29; all others 2'-OMe) [aptamer ID 3(24)]
- activity (FGF2 [1]): 90%
- IC50 (FGF2 [2]): 7.3 nM

B4: aptamer ID 3(31) (ssRNA)
RNA: GGGAUACUAGGGCAUUAAUGUUACCAGUGUAGUCCC
modifications: 2'-F at U8,U16,U21,U28,U30; 2'-OH at G12,G27,G29; all others 2'-OMe; PS between G27 and U28
- activity (FGF2 [1]): 91%
- IC50 (FGF2 [2]): 10 nM

Binder: GGGAUACUAGGGCAUUAAUGUUACCAGUGUAGUCCC (ssRNA, all C and U 2'-F; 2'-OMe at G10; other purines 2'-OH) [aptamer ID 3(4)]
- activity (FGF2 [1]): 89%

Binder: GGGAUACUAGGGCAUUAAUGUUACCAGUGUAGUCCC (ssRNA, all C and U 2'-F; 2'-OMe at A31; other purines 2'-OH) [aptamer ID 3(11)]
- activity (FGF2 [1]): 88%

B5: aptamer ID 3(37) (ssRNA)
RNA: GGGAUACUAGGGCAUUAAUGUUACCAGUGUAGUCCC
modifications: 2'-F at U8,U16,U21,U28,U30; 2'-OH at G12,G27,G29; all others 2'-OMe; 5' PEG 40K (Y-NHS-40K)-ssH; 3' idT
- activity (FGF2 [1]): 97%

Binder: GGGAUACUAGGGCAUUAAUGUUACCAGUGUAGUCCC (ssRNA, all C and U 2'-F; 2'-OMe at A23; other purines 2'-OH) [aptamer ID 3(6)]
- activity (FGF2 [1]): 78%

Binder: GGGAUACUAGGGCAUUAAUGUUACCAGUGUAGUCCC (ssRNA, all C and U 2'-F; 2'-OMe at G1,G2,G3,A4; other purines 2'-OH) [aptamer ID 3(2)]
- activity (FGF2 [1]): 89%

Binder: GGGAUACUAGGGCAUUAAUGUUACCAGUGUAGUCCC (ssRNA, all C and U 2'-F; 2'-OMe at A26; other purines 2'-OH) [aptamer ID 3(7)]
- activity (FGF2 [1]): 89%

B6: aptamer ID 3(30) (ssRNA)
RNA: GGGAUACUAGGGCAUUAAUGUUACCAGUGUAGUCCC
modifications: 2'-F at U8,U16,U21,U28,U30; 2'-OH at G12,G27,G29; all others 2'-OMe; PS between A26 and G27
- activity (FGF2 [1]): 99%
- IC50 (FGF2 [2]): 3.3 nM

B7: aptamer ID 3(32) (ssRNA)
RNA: GGGAUACUAGGGCAUUAAUGUUACCAGUGUAGUCCC
modifications: 2'-F at U8,U16,U21,U28,U30; 2'-OH at G12,G27,G29; all others 2'-OMe; PS between U28 and G29
- activity (FGF2 [1]): 91%
- IC50 (FGF2 [2]): 4 nM

B8: aptamer ID 3(38) (ssRNA)
RNA: GGGAUACUAGGGCAUUAAUGUUACCAGUGUAGUCCC
modifications: 2'-F at U8,U16,U21,U28,U30; 2'-OH at G12,G27,G29; all others 2'-OMe; 5' PEG 10K (ME-100TS)-C6; 3' idT
- activity (FGF2 [1]): 97%

Binder: GGGAUACUAGGGCAUUAAUGUUACCAGUGUAGUCCC (ssRNA, all C and U 2'-F; 2'-OMe at A6; other purines 2'-OH) [aptamer ID 3(9)]
- activity (FGF2 [1]): 89%

B9: aptamer ID 3(13) (ssRNA)
RNA: GGGAUACUAGGGCAUUAAUGUUACCAGUGUAGUCCC
modifications: 2'-OMe at G1,G2,G3,A4,A9,G10,G11,A14,U15,U16,A17,A18,U19,G20,A23,A26; other C and U 2'-F; other purines 2'-OH
- activity (FGF2 [1]): 88%
- IC50 (FGF2 [2]): 15 nM

Binder: GGAUACUAGGGCAUUAAUGUUACCAGUGUAGUCC (ssRNA, 2'-F at U7,U15,U20,U27,U29; 2'-OH at G11,G26,G28; all others 2'-OMe; 3' idT) [aptamer ID 4]
- activity (FGF2 [1]): 95%
- IC50 (FGF2 [2]): 5 nM

Binder: GGAUACUAGGGCAUUAAUGUUACCAGUGUAGUCC (ssRNA, 2'-F at U7,G11,U15,U20,U27,U29; 2'-OH at G26,G28; all others 2'-OMe; 3' idT) [aptamer ID 4(1)]
- activity (FGF2 [1]): 93%
- IC50 (FGF2 [2]): 3.8 nM

Binder: GGAUACUAGGGCAUUAAUGUUACCAGUGUAGUCC (ssRNA, 2'-F at U7,G11,U15,U20,G26,U27,U29; 2'-OH at G28; all others 2'-OMe; 3' idT) [aptamer ID 4(2)]
- activity (FGF2 [1]): 94%
- IC50 (FGF2 [2]): 5.1 nM

B10: aptamer ID 4(3) (ssRNA)
RNA: GGAUACUAGGGCAUUAAUGUUACCAGUGUAGUCC
modifications: 2'-F at U7,G11,U15,U20,U27,U29; 2'-OH at G26,G28; all others 2'-OMe; PS between U27 and G28; 3' idT
- activity (FGF2 [1]): 96%
- IC50 (FGF2 [2]): 4.6 nM

B11: aptamer ID 4(4) (ssRNA)
RNA: GGAUACUAGGGCAUUAAUGUUACCAGUGUAGUCC
modifications: 2'-F at U7,G11,U15,U20,G26,U27,U29; 2'-OH at G28; all others 2'-OMe; PS between G28 and U29; 3' idT
- activity (FGF2 [1]): 96%
- IC50 (FGF2 [2]): 4.5 nM
